From paper PMC8102632 come the findings set out here.

Test [1] addresses Thiomicrospira Cas2 (Thiomicrospira). Description: cryo-EM structure; 50 uM Cas6-RT-Cas1, 50 uM Cas2 and 12.5 uM half-site DNA substrate dialysed into 10 mM HEPES pH 7.5, 5 mM EDTA, 500 mM KCl, 0.5 mM TCEP, 0.5% glycerol; purified over Superose 6 Increase; single particle cryo-EM; no density seen for the DNA.
The target in test [2] is Thiomicrospira Cas6-RT-Cas1 RT-K574A mutant (Thiomicrospira).
In test [3] the target is Thiomicrospira Cas6-RT-Cas1 fusion protein (Thiomicrospira). Description: cryo-EM structure; 50 uM Cas6-RT-Cas1, 50 uM Cas2 and 12.5 uM half-site DNA substrate dialysed into 10 mM HEPES pH 7.5, 5 mM EDTA, 500 mM KCl, 0.5 mM TCEP, 0.5% glycerol; purified over Superose 6 Increase; single particle cryo-EM; no density seen for the DNA.

The substance Thiomicrospira Cas2 (natural protein) had a stoichiometry N in test [1] of 2.

In test [2], “Thiomicrospira Cas6-RT-Cas1 RT-K574A mutant (enzyme)” displayed a ligation of ssRNA protospacer into pCRISPR by the mutant Cas6-RT-Cas1—Cas2 complex relative to WT (RT-helix of one protomer with Cas1a of another) of over 80 % reduction.

In the case of “Thiomicrospira Cas6-RT-Cas1 fusion protein (enzyme)”, in test [3], the stoichiometry N stood at 2.
